Reference: US20260151494A1 (ARO BIOTHERAPEUTICS, published 2026)

How the values were obtained:
[1] = biological target: T1, human CD71 extracellular domain (human, UniProt P02786 89-760); assay: primary ELISA; signal on hCD71 over signal on HSA
T1 construct: also called hCD71; human CD71-ECD

[2] = biological target: T1, human CD71 extracellular domain; assay: primary ELISA of colonies, luminescence
[3] = biological target: T2, apical domain of human CD71 (human, UniProt P02786 189-383, limits assumed); assay: primary ELISA of colonies, luminescence
T2 construct: domain: apical domain; the panning antigen was 30% biotinylated; also called human apical domain of CD71
T2 sequence (P02786 189-383 limits assumed): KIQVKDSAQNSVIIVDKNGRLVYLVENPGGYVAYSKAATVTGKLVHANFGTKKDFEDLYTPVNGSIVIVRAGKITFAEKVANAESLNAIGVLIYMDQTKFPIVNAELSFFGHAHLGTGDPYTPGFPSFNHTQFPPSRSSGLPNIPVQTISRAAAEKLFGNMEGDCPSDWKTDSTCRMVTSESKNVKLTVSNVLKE

[4] = biological target: T2, apical domain of human CD71; assay: primary ELISA; signal on apical domain over signal on HSA
[5] = biological target: human CD71 on cells (SKBR3; SW620-rLuc-KRAS) (human, UniProt P02786 1-760); assay: cell-based or functional assay
Chain of human CD71 on cells (SKBR3; SW620-rLuc-KRAS) (P02786 whole entry): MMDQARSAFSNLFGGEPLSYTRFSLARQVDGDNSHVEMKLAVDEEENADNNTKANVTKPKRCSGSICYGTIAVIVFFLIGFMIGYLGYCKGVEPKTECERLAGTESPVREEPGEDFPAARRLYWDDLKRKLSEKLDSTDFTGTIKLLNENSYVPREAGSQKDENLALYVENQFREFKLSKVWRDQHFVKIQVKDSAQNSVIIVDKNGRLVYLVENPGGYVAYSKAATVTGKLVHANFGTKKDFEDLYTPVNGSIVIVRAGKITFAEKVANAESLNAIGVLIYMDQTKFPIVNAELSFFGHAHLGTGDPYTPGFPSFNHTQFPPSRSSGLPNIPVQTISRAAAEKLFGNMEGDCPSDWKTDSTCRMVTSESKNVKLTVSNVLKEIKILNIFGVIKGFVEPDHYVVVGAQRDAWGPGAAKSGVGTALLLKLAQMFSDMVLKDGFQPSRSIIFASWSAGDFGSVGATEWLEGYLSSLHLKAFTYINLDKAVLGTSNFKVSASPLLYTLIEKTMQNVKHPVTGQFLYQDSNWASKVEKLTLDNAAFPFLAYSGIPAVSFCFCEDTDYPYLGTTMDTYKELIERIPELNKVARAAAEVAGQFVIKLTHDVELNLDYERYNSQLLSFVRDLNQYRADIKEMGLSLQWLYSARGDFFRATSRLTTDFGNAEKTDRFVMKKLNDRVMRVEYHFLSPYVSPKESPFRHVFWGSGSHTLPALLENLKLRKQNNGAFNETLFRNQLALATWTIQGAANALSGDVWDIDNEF

T1 sequence (P02786 89-760): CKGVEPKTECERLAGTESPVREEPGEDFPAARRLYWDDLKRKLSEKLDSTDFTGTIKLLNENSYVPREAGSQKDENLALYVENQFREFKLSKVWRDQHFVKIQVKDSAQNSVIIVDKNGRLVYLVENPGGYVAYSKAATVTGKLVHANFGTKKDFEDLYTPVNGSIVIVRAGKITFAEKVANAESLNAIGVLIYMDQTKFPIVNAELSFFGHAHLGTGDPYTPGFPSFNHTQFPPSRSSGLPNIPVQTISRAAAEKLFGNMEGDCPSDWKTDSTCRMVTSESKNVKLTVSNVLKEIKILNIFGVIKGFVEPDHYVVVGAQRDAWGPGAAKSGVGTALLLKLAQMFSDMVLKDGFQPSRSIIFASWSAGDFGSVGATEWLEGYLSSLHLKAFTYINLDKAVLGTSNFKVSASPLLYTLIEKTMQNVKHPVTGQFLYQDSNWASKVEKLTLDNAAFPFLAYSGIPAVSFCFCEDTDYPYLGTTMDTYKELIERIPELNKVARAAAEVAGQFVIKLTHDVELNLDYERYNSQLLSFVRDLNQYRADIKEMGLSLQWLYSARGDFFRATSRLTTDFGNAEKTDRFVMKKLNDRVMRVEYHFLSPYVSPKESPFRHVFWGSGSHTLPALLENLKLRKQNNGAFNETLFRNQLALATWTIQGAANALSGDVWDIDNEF

| Binder | hCD71:HSA [1] | hCD71, RLU [2] | Apical domain, RLU [3] | Apical domain:HSA [4] | CTG EC50 (CellTiter-Glo luminescent assay, SKBR3 cells, 72 h) [5] |
| --- | --- | --- | --- | --- | --- |
| CD71-binding FN3 domain of SEQ ID NO: 102 (designed binder, Screen 1 hit, tested from colonies in the primary ELISA; not shown: C-terminal poly-histidine tag added to each FN3 domain) MLPAPKNLVVSRVTEDSARLSWTAPDAAFDSFDIGYTEYGGYGEAIILQVPGSERSYDLTGLKPGTEYWVLIQGVKGGGSSVPLVAYFTT | 68 ratio | 308000 RLU | 5.87e+06 RLU | 1290 ratio | – |
| CD71-binding FN3 domain of SEQ ID NO: 347 (designed binder) MLPAPKNLVVSRVTEDSARLSWTAPDAAFDSFFIGYLEPQPPGEAIGLFVPGSERSYDLTGLKPGTEYNVTIQGVKGGFPSEPLKAAFTT | – | – | – | – | 53.4 nM |
| CD71-binding FN3 domain of SEQ ID NO: 445 (designed binder) MLPAPKNLVVSRVTEDSARLSWTAPDAAFDSFFIGYLEPQPPGEAIHLFVPGSERSYDLTGLKPGTEYNVTIQGVKGGFPSDPLVASFTT | – | – | – | – | 0.4 nM |
| CD71-binding FN3 domain of SEQ ID NO: 491 (designed binder) MLPAPKNLVVSRVTEDSARLSWTAPDAAFDSFFIGYLEPQPSGEAIHLIVPGSERSYDLTGLKPGTEYNVTIQGVKGGFPSDPLVASFTT | – | – | – | – | 3.2 nM |
| CD71-binding FN3 domain of SEQ ID NO: 112 (designed binder, Screen 1 hit, tested from colonies in the primary ELISA; not shown: C-terminal poly-histidine tag added to each FN3 domain) MLPAPKNLVVSRVTEDSARLSWTAPDAAFDSFFIGYLEPQPPGEAIDLWVPGSERSYDLTGLKPGTEYNVTIQGVKGGFPSMPLSAIFTT | 2040 ratio | 5.41e+06 RLU | 4.78e+06 RLU | 1800 ratio | – |
| CD71-binding FN3 domain of SEQ ID NO: 115 (designed binder, Screen 1 hit, tested from colonies in the primary ELISA; not shown: C-terminal poly-histidine tag added to each FN3 domain) MLPAPKNLVVSRVTEDSARLSWTAPDAAFDSFFIGYLEPQPPGEAIDLYVPGSERSYDLTGLKPGIEYNVTIQGVKGGFPSLPLQAHFTT | 999 ratio | 5.19e+06 RLU | 4.58e+06 RLU | 881 ratio | – |
| CD71-binding FN3 domain of SEQ ID NO: 109 (designed binder, Screen 1 hit, tested from colonies in the primary ELISA; not shown: C-terminal poly-histidine tag added to each FN3 domain) MLPAPKNLVVSRVTEDSARLSWTAPDAAFDSFFIGYLEPQPPGEAIILHVPGSERSYDLTGLKPGTEYNVTIQGVKGGFPSLPLNANFTT | 1210 ratio | 3.94e+06 RLU | 3.35e+06 RLU | 1030 ratio | – |
| CD71-binding FN3 domain of SEQ ID NO: 104 (designed binder, Screen 1 hit, tested from colonies in the primary ELISA; not shown: C-terminal poly-histidine tag added to each FN3 domain) MLPAPKNLVVSRVTEDSARLSWTAPDAAFDSFFIGYLEPQPPGEAIHLIVPGSERSYDLTGQKPGTEYNVTIQGVKGGFPSDPLVASFTT | 216 ratio | 6.36e+06 RLU | 4.43e+06 RLU | 150 ratio | – |
| CD71-binding FN3 domain of SEQ ID NO: 100 (designed binder, Screen 1 hit, tested from colonies in the primary ELISA; not shown: C-terminal poly-histidine tag added to each FN3 domain) MLPAPKNLVVSRVTEDSARLSWTAPDAAFDSFYIAYAEPRPDGEAILLLVPGSERSYDLTGLKPGTEYSVLIHGVKGGLLSSPLVASFTT | 897 ratio | 6.95e+06 RLU | 6.1e+06 RLU | 787 ratio | – |
| CD71-binding FN3 domain of SEQ ID NO: 103 (designed binder, Screen 1 hit, tested from colonies in the primary ELISA; not shown: C-terminal poly-histidine tag added to each FN3 domain) MLPAPKNLVVSRVTEDSARLSWTAPDAAFDSFYIAYAEPRPDGEAIILGVPGSERSYDLTGLKPGTEYSVLIHGVKGGLLSSPLSAYSTT | 350 ratio | 6.37e+06 RLU | 5.3e+06 RLU | 291 ratio | – |
| CD71-binding FN3 domain of SEQ ID NO: 106 (designed binder, Screen 1 hit, tested from colonies in the primary ELISA; not shown: C-terminal poly-histidine tag added to each FN3 domain) MLPAPKNLVVSRVTEDSARLSWTAPDAVFDSFYIAYAEPRPDGEAIGLYVPGSERSYDLTGLKPGTEYSVLIHGVKGGLLSSPLTASFTT | 1230 ratio | 3.13e+06 RLU | 4.81e+06 RLU | 1890 ratio | – |
| CD71-binding FN3 domain of SEQ ID NO: 118 (designed binder, Screen 1 hit, tested from colonies in the primary ELISA; not shown: C-terminal poly-histidine tag added to each FN3 domain) MLPAPKNLVVSRVTEDSARLSWTAPDAAFDSFYIAYAEPRPDGEAITLWVPGSERSYDLTGLKPGTEYSVTIHGVKGGLLSSPLSAIFTT | 200 ratio | 641000 RLU | 3.75e+06 RLU | 1170 ratio | – |
| CD71-binding FN3 domain of SEQ ID NO: 116 (designed binder, Screen 1 hit, tested from colonies in the primary ELISA; not shown: C-terminal poly-histidine tag added to each FN3 domain) MLPAPKNLVVSRVTEDSARLSWTAPDAAFDSFYIAYAEPRPDGEAILLLVPGSERSYDLTGLKPGTEYSVLIHGVKGGLLSSPLIAGFTT | 1470 ratio | 4.05e+06 RLU | 6.06e+06 RLU | 2200 ratio | – |
| CD71-binding FN3 domain of SEQ ID NO: 105 (designed binder, Screen 1 hit, tested from colonies in the primary ELISA; not shown: C-terminal poly-histidine tag added to each FN3 domain) MLPAPKNLVVSRVTEDSARLSWTAPDAAFDSFHIVYHEPRPSGEAIWLWVPGSERSYDLTGLKPGTEYEVGIVSVKGGDLSVPLSAIFTT | 503 ratio | 1.51e+06 RLU | 3.84e+06 RLU | 1280 ratio | – |
| CD71-binding FN3 domain of SEQ ID NO: 110 (designed binder, Screen 1 hit, tested from colonies in the primary ELISA; not shown: C-terminal poly-histidine tag added to each FN3 domain) MLPAPKNLVVSRVTEDSARLSWTAPDAAFDSFHIVYHEPRPSGEAIYLEVPGSERSYDLTGLKPGTEYEVGIVSVKGGDLSVPLRAHFTT | 2070 ratio | 5.17e+06 RLU | 6e+06 RLU | 2400 ratio | – |

Other lines, results leading:

| hCD71:HSA [1] | hCD71, RLU [2] | Apical domain, RLU [3] | Apical domain:HSA [4] | CTG EC50 (CellTiter-Glo luminescent assay, SKBR3 cells, 72 h) [5] | Binder |
| --- | --- | --- | --- | --- | --- |
| 78 ratio | 340000 RLU | 542000 RLU | 125 ratio | – | CD71-binding FN3 domain of SEQ ID NO: 101 (designed binder, Screen 1 hit, tested from colonies in the primary ELISA; not shown: C-terminal poly-histidine tag added to each FN3 domain) MLPAPKNLVVSRVTEDSARLSWTAPDAAFDSFGIGYWERRWYGEAIVLTVPGSERSYDLTGLKPGTEYEVTIRGVKGGGYSGPLSAIFTT |
| – | – | – | – | 0.2 nM | CD71-binding FN3 domain of SEQ ID NO: 469 (designed binder) MLPAPKNLVVSRVTEDSARLSWTAPDAAFDSFFIGYLEPQPPGEAIHLYVPGSERSYDLTGLKPGTEYNVTIQGVKGGFPSLPLVATFTT |
| – | – | – | – | 0.1 nM | CD71-binding FN3 domain of SEQ ID NO: 527 (designed binder) MLPAPKNLVVSRVTEDSARLSWTAPDAAFDSFFIGYLEPQPPGEAIHLYVPGSERSYDLTGLKPGTEYNVTIQGVKGGFPSEPLIANFTT |
| – | – | – | – | 31.3 nM | CD71-binding FN3 domain of SEQ ID NO: 497 (designed binder) MLPAPKNLVVSRVTEDSARLSWTAPDAAFDSFFIGYLEPQPPGEAITLLVPGSERSYDLTGLKPGTEYNVTIQGVKGGFPSKPLYAYFTT |
| 1640 ratio | 4.6e+06 RLU | 5.94e+06 RLU | 2120 ratio | – | CD71-binding FN3 domain of SEQ ID NO: 113 (designed binder, Screen 1 hit, tested from colonies in the primary ELISA; not shown: C-terminal poly-histidine tag added to each FN3 domain) MLPAPKNLVVSRVTEDSARLSWTAPDAAFDSFFIGYLEPQPPGEAIYLLVPGSERSYDLTGLKPGTEYNVTIQGVKGGFPSDPLSAIFTT |
| 1120 ratio | 4.21e+06 RLU | 5.33e+06 RLU | 1420 ratio | – | CD71-binding FN3 domain of SEQ ID NO: 117 (designed binder, Screen 1 hit, tested from colonies in the primary ELISA; not shown: C-terminal poly-histidine tag added to each FN3 domain) MLPAPKNLVVSRVTEDSARLSWTAPDAAFDSFFIGYLEPQPPGEAIWLLVPGSERSYDLTGLKPGTEYNVTIQGVKGGFPSTPLSAIFTT |
| – | – | – | – | 30.6 nM | CD71-binding FN3 domain of SEQ ID NO: 479 (designed binder) MLPAPKNLVVSRVTEDSARLSWTAPDAAFDSFFIGYLEPQPPGEAINLWVPGSERSYDLTGLKPGTEYNVTIQGVKGGFPSTPLFAGFTT |
| 1860 ratio | 6.03e+06 RLU | 4.23e+06 RLU | 1300 ratio | – | CD71-binding FN3 domain of SEQ ID NO: 107 (designed binder, Screen 1 hit, tested from colonies in the primary ELISA; not shown: C-terminal poly-histidine tag added to each FN3 domain) MLPAPKNLVVSRVTEDSARLSWTAPDAAFDSFFIGYLEPQPPGEAIGLQVPGSERSYDLTGLKPGTEYNVTIQGVKGGFPSMPLSAIFTT |
| – | – | – | – | 5.8 nM | CD71-binding FN3 domain of SEQ ID NO: 410 (designed binder) MLPAPKNLVVSRVTEDSARLSWTAPDAAFDSFFIGYLEPQPPGEAIALWVPGSERSYDLTGLKPGTEYNVTIQGVKGGFPSQPLHAHFTT |
| 1420 ratio | 3.7e+06 RLU | 5.04e+06 RLU | 1940 ratio | – | CD71-binding FN3 domain of SEQ ID NO: 111 (designed binder, Screen 1 hit, tested from colonies in the primary ELISA; not shown: C-terminal poly-histidine tag added to each FN3 domain) MLPAPKNLVVSRVTEDSARLSWTAPDAAFDSFFIGYLEPQPPGEAISLWVPGSERSYDLTGLKPGTEYNVTIQGVKGGFPSIPLWAIFTT |
| – | – | – | – | 10.9 nM | CD71-binding FN3 domain of SEQ ID NO: 370 (designed binder) MLPAPKNLVVSRVTEDSARLSWTAPDAAFDSFYIAYAEPRPDGEAIVLVVPGSERSYDLTGLKPGTEYSVLIHGVKGGLLSSPLSAHFTT |
| 1140 ratio | 3.81e+06 RLU | 5.77e+06 RLU | 1720 ratio | – | CD71-binding FN3 domain of SEQ ID NO: 108 (designed binder, Screen 1 hit, tested from colonies in the primary ELISA; not shown: C-terminal poly-histidine tag added to each FN3 domain) MLPAPKNLVVSRVTEDSARLSWTAPDAAFDSFYIAYAEPRPDGEAILLQVPGSERSYDLTGLKPGTEYSVLIHGVKGGLLSSPLVAKFTT |
